Data as given in PMC3140604.

Experiments:
[1] = substrate: O=C(O)C(Cl)Cl; assay: cells, lysate or membranes; assay type: cell-based, Homo sapiens; details: Na+ competes with nicotinate for uptake via SLC5A8
[2] = substrate: CC(=O)O; assay: cells, lysate or membranes; assay type: cell-based, Homo sapiens; details: Na+ competes with nicotinate for uptake via SLC5A8

B1: SLC5A8 (Homo sapiens) (protein)
chain: MDTPRGIGTFVVWDYVVFAGMLVISAAIGIYYAFAGGGQQTSKDFLMGGRRMTAVPVALSLTASFMSAVTVLGTPSEVYRFGAIFSIFAFTYFFVVVISAEVFLPVFYKLGITSTYEYLELRFNKCVRLCGTVLFIVQTILYTGIVIYAPALALNQVTGFDLWGAVVATGVVCTFYCTLGGLKAVIWTDVFQVGIMVAGFASVIIQAVVMQGGISTILNDAYDGGRLNFWNFNPNPLQRHTFWTIIIGGTFTWTSIYGVNQSQVQRYISCKSRFQAKLSLYINLVGLWAILTCSVFCGLALYSRYHDCDPWTAKKVSAPDQLMPYLVLDILQDYPGLPGLFVACAYSGTLSTVSSSINALAAVTVEDLIKPYFRSLSERSLSWISQGMSVVYGALCIGMAALASLMGALLQAALSVFGMVGGPLMGLFALGILVPFANSIGALVGLMAGFAISLWVGIGAQIYPPLPERTLPLHLDIQGCNSTYNETNLMTTTEMPFTTSVFQIYNVQRTPLMDNWYSLSYLYFSTVGTLVTLLVGILVSLSTGGRKQNLDPRYILTKEDFLSNFDIFKKKKHVLSYKSHPVEDGGTDNPAFNHIELNSDQSGKSNGTRL
Work on B1 yielded a Km [1] of 36 ± 7 µM and a Km [2] of 1600 ± 100 µM.
